Results published in PMC7782793, “Hydroxamic acid-modified peptide microarrays for profiling isozyme-selective interactions and inhibition of histone deacetylases” (Nature Communications, 2021).
Starred links: 1 amine or outer side, 2 acyl side, 3 side chain; linkers in the order of their positions; H or OH if unused. Non-standard residues stand in square brackets, D forms with d. Primed or numbered codes have the meaning given here. No end group written: not given here. Asuha″ = L-2-amino-8-(hydroxyamino)-8-oxooctanoic acid, O=C(CCCCC[C@H](N[*:1])C(=O)[*:2])NO

Molecular target: T1, HDAC6 (histone deacetylase 6) (human, UniProt Q9UBN7 1-1215)
T1 construct: HDAC6, human, full length; source: bought: BPS Bioscience, cat. #50056
T1 sequence (looked up): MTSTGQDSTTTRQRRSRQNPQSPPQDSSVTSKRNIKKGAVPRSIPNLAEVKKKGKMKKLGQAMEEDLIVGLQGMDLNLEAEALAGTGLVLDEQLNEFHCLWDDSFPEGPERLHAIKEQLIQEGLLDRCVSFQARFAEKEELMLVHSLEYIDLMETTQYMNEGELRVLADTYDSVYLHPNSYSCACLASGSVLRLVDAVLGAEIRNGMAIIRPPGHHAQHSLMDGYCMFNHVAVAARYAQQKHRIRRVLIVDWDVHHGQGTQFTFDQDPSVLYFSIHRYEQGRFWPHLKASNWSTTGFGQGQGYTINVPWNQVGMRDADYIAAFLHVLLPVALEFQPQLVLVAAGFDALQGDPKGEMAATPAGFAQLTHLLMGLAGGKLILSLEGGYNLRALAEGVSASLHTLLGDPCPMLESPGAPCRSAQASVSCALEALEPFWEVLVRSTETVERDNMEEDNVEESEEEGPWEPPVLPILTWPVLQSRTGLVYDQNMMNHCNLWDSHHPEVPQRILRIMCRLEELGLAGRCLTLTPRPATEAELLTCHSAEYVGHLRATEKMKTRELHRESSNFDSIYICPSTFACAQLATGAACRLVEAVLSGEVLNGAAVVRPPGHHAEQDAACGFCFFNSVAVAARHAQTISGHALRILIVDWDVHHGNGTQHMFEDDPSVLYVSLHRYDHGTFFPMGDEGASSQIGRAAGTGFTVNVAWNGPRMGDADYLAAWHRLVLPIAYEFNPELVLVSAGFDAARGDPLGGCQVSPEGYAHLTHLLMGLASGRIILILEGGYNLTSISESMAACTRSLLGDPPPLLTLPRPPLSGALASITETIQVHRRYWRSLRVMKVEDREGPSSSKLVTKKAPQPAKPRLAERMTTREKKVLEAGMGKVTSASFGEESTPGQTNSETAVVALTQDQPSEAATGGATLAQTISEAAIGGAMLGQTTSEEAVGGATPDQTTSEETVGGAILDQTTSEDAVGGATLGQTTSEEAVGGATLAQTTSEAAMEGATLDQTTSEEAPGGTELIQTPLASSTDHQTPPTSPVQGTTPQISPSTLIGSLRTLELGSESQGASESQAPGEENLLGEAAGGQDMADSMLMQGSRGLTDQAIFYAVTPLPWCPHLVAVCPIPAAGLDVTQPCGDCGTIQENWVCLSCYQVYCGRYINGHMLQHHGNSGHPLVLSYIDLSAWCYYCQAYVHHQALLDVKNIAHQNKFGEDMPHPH
Assay: fluorogenic enzyme inhibition assay; peptide in 5-fold dilution series with enzyme and fluorogenic substrate (Ac-Leu-Gly-Lys(Ac)-AMC or Ac-Leu-Gly-Lys(Tfa)-AMC), HEPES buffer pH 7.4, 30 min, 37 °C, trypsin development; Ki by the Cheng-Prusoff equation
Settings: both partners purified

Binder: KGGKGLG[Asuha″]GGAKRHR [peptide 1a (parent H4K12 Asuha peptide)]
- Ki: 5.31 ± 0.03 nM
